Experimental data published in the supplement of paper PMC10126150.
± gives the standard deviation of the averaged measurements.

tested on: ATP; assay: switch fluorescence ratio, 500 uM ATP over buffer (Cy3 cluster intensity, sum of 5 cycles each) (fold (ratio)); higher = stronger signal-on switching upon ATP binding; sequences stand for … in TCGTCGGCAGCGTCAGATGTGTATAAGAGACAGTTTTTTTTTTTTTTTTTTTTTTTTT…TC; conditions: aptamer strand: ATP DNA aptamer (quencher-CACCTGGGGGAGTATTGCGGAGGAAGG + anchor), 100 nM annealed; ATP concentration: 500 uM
Procedure, shortened: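 Clusters with intensities outside 100-1000 RFU were excluded. The remaining Cy3-labelled switching-strand clusters on a modified Illumina MiSeq flow-cell had been annealed to 100 nM quencher-labelled ATP aptamer and imaged in selection buffer, then after 15 min with 500 uM ATP at 22 °C, for five cycles separated by NaOH stripping and re-annealing. The fluorescence ratio, averaged per switch-domain sequence, is each cluster's summed target-cycle Cy3 intensity over its summed buffer-cycle Cy3 intensity.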
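Also: ATP exposure 15 min at 22 °C before imaging.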

CTCTCGGCCG and CTCTCTAGCT are the same in switch fluorescence ratio: 1.03 ± 0.12 for the first, 1.035 ± 0.01 for the second.

Compared with CTCTGAGGGG, CTCTGCTCGC is higher in switch fluorescence ratio: 1.16 ± 0.1 for the first, 4.15 ± 0.55 for the second.

First: CTCTGGGCGG
Second: CTCTGGGGGC
The switch fluorescence ratio of the first is lower: 0.988 ± 0.039 for the first, 1.1 ± 0.062 for the second.

CTCTGTACAG and CTGAAGGCCC are within error of each other in switch fluorescence ratio: 1.01 ± 0.018 for the first, 1.02 ± 0.019 for the second.

CTGACAGATT and CTGACGAAGG are within error of each other in switch fluorescence ratio: 1.11 ± 0.12 for the first, 1.05 ± 0.029 for the second.

CTGACGGATT and CTGACGTAAG are within error of each other in switch fluorescence ratio: 1.2 ± 0.054 for the first, 1.26 ± 0.29 for the second.

CTGAGAACTT and CTGAGAGTAC are within error of each other in switch fluorescence ratio: 0.983 ± 0.055 for the first, 1.05 ± 0.07 for the second.

CTGAGAGTAT and CTGAGGCACG are within error of each other in switch fluorescence ratio: 1 ± 0.025 for the first, 1.09 ± 0.068 for the second.

CTGAGGGAGA and CTGAGGGGT are within error of each other in switch fluorescence ratio: 1.04 ± 0.03 for the first, 1.05 ± 0.037 for the second.

CTGAGGGTAT and CTGAGTAGTT are the same in switch fluorescence ratio: 1.006 ± 0.0098 for the first, 1.01 ± 0.018 for the second.

Going from CTGAGTATAG to CTGAGTCAAT, the switch fluorescence ratio rises from 1.01 ± 0.023 to 2.23 ± 0.042.

CTGAGTCGGA and CTGAGTGATG are within error of each other in switch fluorescence ratio: 0.983 ± 0.033 for the first, 1.01 ± 0.02 for the second.

Going from CTGAGTTGGG to CTGATAGGGA, the switch fluorescence ratio rises from 0.9793 ± 0.0042 to 1.01 ± 0.019.

CTGATATGCG and CTGATGTCTA are within error of each other in switch fluorescence ratio: 0.997 ± 0.023 for the first, 0.977 ± 0.022 for the second.

Going from CTGATTAGGA to CTGCAATAGA, the switch fluorescence ratio rises from 0.989 ± 0.017 to 4.41 ± 0.16.

CTGCATAGGT and CTGCATCAGT are within error of each other in switch fluorescence ratio: 1.31 ± 0.38 for the first, 1.04 ± 0.011 for the second.

Going from CTGCGCAAGG to CTGCGGTAAA, the switch fluorescence ratio falls from 6.27 ± 0.014 to 0.96953 ± 0.00082.

First: CTGCTCTGTG
Second: CTGCTGGGGT
The switch fluorescence ratio of the first is lower: 0.968 ± 0.014 for the first, 1.04 ± 0.018 for the second.

Going from CTGGAAAACG to CTGGAAAGGG, the switch fluorescence ratio falls from 1.008 ± 0.0046 to 0.96 ± 0.019.

First: CTGGAAGGTG
Second: CTGGACCGGC
The switch fluorescence ratio of the first is higher: 1.811 ± 0.017 for the first, 0.967 ± 0.014 for the second.

Going from CTGGAGGATA to CTGGAGGGGG, the switch fluorescence ratio falls from 1.12 ± 0.014 to 1.01 ± 0.032.

CTGGATAGAA and CTGGATGGTG are within error of each other in switch fluorescence ratio: 1.01 ± 0.033 for the first, 0.98 ± 0.051 for the second.

CTGGCAACGA and CTGGCACGGA are within error of each other in switch fluorescence ratio: 1.06 ± 0.013 for the first, 1 ± 0.063 for the second.

First: CTGGCATGGT
Second: CTGGCATTTC
The switch fluorescence ratio of the first is lower: 1 ± 0.011 for the first, 1.37 ± 0.047 for the second.

CTGGCCGTTT and CTGGCTAGGT are within error of each other in switch fluorescence ratio: 1.016 ± 0.01 for the first, 0.988 ± 0.057 for the second.

CTGGGAACGG and CTGGGAGATG are within error of each other in switch fluorescence ratio: 0.965 ± 0.052 for the first, 0.99088 ± 0.00019 for the second.

First: CTGGGAGCAC
Second: CTGGGATTAT
The switch fluorescence ratio of the first is higher: 1.89 ± 0.15 for the first, 0.9755 ± 0.0074 for the second.

CTGGGCAGAG and CTGGGCGGGG are within error of each other in switch fluorescence ratio: 1.02 ± 0.043 for the first, 1.01 ± 0.026 for the second.

CTGGGGAGGG and CTGGGGATTA are within error of each other in switch fluorescence ratio: 1 ± 0.048 for the first, 0.972 ± 0.031 for the second.

CTGGGGGAAT and CTGGGGGGGC are the same in switch fluorescence ratio: 1.01 ± 0.013 for the first, 1.01 ± 0.043 for the second.

CTGGGGTATG and CTGGGGTTGC are within error of each other in switch fluorescence ratio: 0.985 ± 0.028 for the first, 0.96 ± 0.03 for the second.

CTGGGGTTTG and CTGGGTGTAT are within error of each other in switch fluorescence ratio: 0.956 ± 0.019 for the first, 0.984 ± 0.063 for the second.

CTGGGTTGGG and CTGGGTTGGT are within error of each other in switch fluorescence ratio: 1.01 ± 0.043 for the first, 0.972 ± 0.024 for the second.

CTGGGTTTGT and CTGGTATAGA are within error of each other in switch fluorescence ratio: 0.981 ± 0.016 for the first, 1 ± 0.046 for the second.

Going from CTGGTATTCT to CTGGTGGACG, the switch fluorescence ratio rises from 0.996 ± 0.037 to 1.041 ± 0.0042.

CTGGTGTAGT and CTGGTTAGGG are within error of each other in switch fluorescence ratio: 1.03 ± 0.047 for the first, 0.98 ± 0.018 for the second.

CTGGTTGGGT and CTGGTTGTCT are the same in switch fluorescence ratio: 1.01 ± 0.027 for the first, 1.01 ± 0.006 for the second.

CTGGTTTAGC and CTGGTTTAGG are the same in switch fluorescence ratio: 1 ± 0.016 for the first, 1 ± 0.036 for the second.

CTGGTTTAGT and CTGTAAGGTT are within error of each other in switch fluorescence ratio: 0.978 ± 0.016 for the first, 1.09 ± 0.14 for the second.

Going from CTGTAAGTGG to CTGTAATAAG, the switch fluorescence ratio rises from 0.989 ± 0.017 to 1.09 ± 0.075.

First: CTGTAGTTTT
Second: CTGTATTGGG
The switch fluorescence ratio of the first is higher: 1.04 ± 0.038 for the first, 0.977 ± 0.013 for the second.

CTGTCCTTTT and CTGTCGACTG are within error of each other in switch fluorescence ratio: 1.11 ± 0.17 for the first, 1.04 ± 0.017 for the second.

Going from CTGTCGTATG to CTGTCTATGC, the switch fluorescence ratio rises from 0.9749 ± 0.0082 to 1.33 ± 0.049.

CTGTCTCAAG and CTGTCTGAGT are within error of each other in switch fluorescence ratio: 0.97 ± 0.059 for the first, 0.9632 ± 0.007 for the second.

CTGTCTGTGC and CTGTGAAAAA are the same in switch fluorescence ratio: 1.09 ± 0.044 for the first, 1.09 ± 0.043 for the second.

CTGTGCGACA and CTGTGCTAAT are within error of each other in switch fluorescence ratio: 1.06 ± 0.053 for the first, 1.1 ± 0.037 for the second.

CTGTGCTGT and CTGTGGCGCT are the same in switch fluorescence ratio: 1.005 ± 0.0062 for the first, 1.01 ± 0.019 for the second.

CTGTGGGTTG and CTGTGTAGTG are within error of each other in switch fluorescence ratio: 1 ± 0.042 for the first, 0.9954 ± 0.002 for the second.

CTGTGTGCGG and CTGTGTGTTC are within error of each other in switch fluorescence ratio: 0.97 ± 0.03 for the first, 1.01 ± 0.026 for the second.

CTGTTAGGAT and CTGTTCGCCA are within error of each other in switch fluorescence ratio: 0.99 ± 0.028 for the first, 1.07 ± 0.077 for the second.

CTGTTGATGG and CTGTTGGGGT are within error of each other in switch fluorescence ratio: 1 ± 0.027 for the first, 0.988 ± 0.017 for the second.

CTGTTGTCGG and CTGTTTGCAG are within error of each other in switch fluorescence ratio: 0.989 ± 0.038 for the first, 0.987 ± 0.056 for the second.

CTGTTTTACT and CTGTTTTTTT are within error of each other in switch fluorescence ratio: 1.03 ± 0.042 for the first, 0.981 ± 0.039 for the second.

Compared with CTTAAAAAGG, CTTAAAGTAT is higher in switch fluorescence ratio: 0.989 ± 0.0056 for the first, 0.9977 ± 0.0024 for the second.

CTTAAATTAT and CTTAACAGCG are within error of each other in switch fluorescence ratio: 0.9967 ± 0.0089 for the first, 1.01 ± 0.02 for the second.

Going from CTTAACATGC to CTTAACCATT, the switch fluorescence ratio falls from 1.06 ± 0.049 to 0.98 ± 0.014.

CTTACCTTGA and CTTAGATTCT are within error of each other in switch fluorescence ratio: 0.997 ± 0.031 for the first, 0.993 ± 0.012 for the second.

Compared with CTTAGGCCAC, CTTAGGGCAC is higher in switch fluorescence ratio: 0.99 ± 0.024 for the first, 1.05 ± 0.016 for the second.

CTTAGGGGGT and CTTAGGGGTA are within error of each other in switch fluorescence ratio: 1 ± 0.018 for the first, 0.999 ± 0.043 for the second.

CTTAGTAATG and CTTAGTACGG are within error of each other in switch fluorescence ratio: 1.05 ± 0.11 for the first, 1.01 ± 0.054 for the second.

CTTAGTGCTT and CTTAGTGGGG are within error of each other in switch fluorescence ratio: 0.973 ± 0.039 for the first, 0.962 ± 0.048 for the second.

CTTATAGGTC and CTTATGATGG are within error of each other in switch fluorescence ratio: 1.01 ± 0.017 for the first, 0.987 ± 0.01 for the second.

CTTATTAGGG and CTTATTTTTT are within error of each other in switch fluorescence ratio: 0.986 ± 0.021 for the first, 1.01 ± 0.029 for the second.

CTTCATAAGT and CTTCATGCTT are within error of each other in switch fluorescence ratio: 0.983 ± 0.022 for the first, 1.02 ± 0.048 for the second.

First: CTTCCGGAGG
Second: CTTCGGACGG
The switch fluorescence ratio of the first is higher: 1.9 ± 0.048 for the first, 1.24 ± 0.036 for the second.

CTTCGGGGCG and CTTCGGGGTT are within error of each other in switch fluorescence ratio: 1.01 ± 0.07 for the first, 1.03 ± 0.035 for the second.

CTTCGGTGGC and CTTCGTATCG are within error of each other in switch fluorescence ratio: 1.01 ± 0.04 for the first, 1.04 ± 0.059 for the second.

CTTCTACGAT and CTTCTAGAT are within error of each other in switch fluorescence ratio: 0.998 ± 0.013 for the first, 0.9895 ± 0.0013 for the second.

CTTCTGGTCG and CTTCTTCGGT are within error of each other in switch fluorescence ratio: 1.01 ± 0.04 for the first, 1 ± 0.015 for the second.

CTTCTTTCTC and CTTGAAAACT are within error of each other in switch fluorescence ratio: 1.051 ± 0.0084 for the first, 1.04 ± 0.044 for the second.

CTTGAACGAA and CTTGAATTTC are within error of each other in switch fluorescence ratio: 1.02 ± 0.04 for the first, 0.987 ± 0.017 for the second.

CTTGACAATT and CTTGAGTGTG are within error of each other in switch fluorescence ratio: 1 ± 0.023 for the first, 0.9827 ± 0.006 for the second.

Compared with CTTGCAAACG, CTTGCCTCAG is lower in switch fluorescence ratio: 1.201 ± 0.0043 for the first, 1.021 ± 0.0076 for the second.

Going from CTTGCTATGC to CTTGCTGTTG, the switch fluorescence ratio falls from 1.64 ± 0.4 to 1.0031 ± 0.00076.

CTTGGAGGAA and CTTGGCGAGA are within error of each other in switch fluorescence ratio: 0.999 ± 0.044 for the first, 1.01 ± 0.018 for the second.

CTTGGGAATA and CTTGGGATCA are within error of each other in switch fluorescence ratio: 1.01 ± 0.05 for the first, 0.971 ± 0.011 for the second.

For CTTGGGATTA, the switch fluorescence ratio was 1.03 ± 0.016.
